Measured values reported in paper PMC12203670.
Several values for one entry are separate records, joined by “and”; a condition that tells them apart may be missing. Equal entries are not always repeated.

Biological target: PKM2 (pyruvate kinase M2), endogenous in mouse heart (mouse (endogenous in heart)) (UniProt P52480)
Test: cross-linking; cross-linking of cardiac PKM2, Western blot of monomer, dimer and tetramer; hearts of Ctrl and cKO mice after 3-h reperfusion, with TEPP-46 or vehicle, or with Ad-Mtx2

PKM2 (pyruvate kinase M2), endogenous in mouse heart, P52480 1-531 (enzyme; other documents disagree on this pair), sequence (P52480 whole entry): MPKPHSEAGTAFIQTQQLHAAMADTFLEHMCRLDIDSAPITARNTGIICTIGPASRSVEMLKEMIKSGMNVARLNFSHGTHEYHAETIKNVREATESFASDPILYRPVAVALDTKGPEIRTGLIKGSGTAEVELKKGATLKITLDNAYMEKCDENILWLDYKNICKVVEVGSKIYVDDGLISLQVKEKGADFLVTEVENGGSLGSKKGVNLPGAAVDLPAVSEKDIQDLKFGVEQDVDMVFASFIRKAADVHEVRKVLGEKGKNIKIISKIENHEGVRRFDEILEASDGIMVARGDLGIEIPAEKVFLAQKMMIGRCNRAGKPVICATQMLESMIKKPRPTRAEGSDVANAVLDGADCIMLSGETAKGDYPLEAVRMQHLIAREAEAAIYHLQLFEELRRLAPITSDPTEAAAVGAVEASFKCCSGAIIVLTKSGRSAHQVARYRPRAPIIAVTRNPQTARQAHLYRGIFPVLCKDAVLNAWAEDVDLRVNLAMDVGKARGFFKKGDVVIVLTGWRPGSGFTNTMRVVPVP

stoichiometry N: 4 and 2
Substance: PKM2 (pyruvate kinase M2), endogenous in mouse heart, P52480 1-531 (enzyme; other documents disagree on this pair)
